# In article PMC10848957:
# Target: FakA_M, central zinc finger domain of Streptococcus suis FakA (Streptococcus suis serotype 2, strain 05ZYH33)
# Test: cross-linking
substance,measurement,value
"FakA_M, central zinc finger domain of Streptococcus suis FakA (domain or fragment)",stoichiometry N,2
